The results in this text go back to patent publication US20070123452A1, “Method of selecting novel immunosuppressant” (Astellas Pharma Inc., priority 2002, published 2007).

In the experiment the target is T1, N-CoR(RD3) (Homo sapiens, UniProt O75376).
T1 construct: expressed in transfected cells; host or cells: Jurkat cells (ATCC, TIB-152)
T1 sequence (O75376 1005-1498): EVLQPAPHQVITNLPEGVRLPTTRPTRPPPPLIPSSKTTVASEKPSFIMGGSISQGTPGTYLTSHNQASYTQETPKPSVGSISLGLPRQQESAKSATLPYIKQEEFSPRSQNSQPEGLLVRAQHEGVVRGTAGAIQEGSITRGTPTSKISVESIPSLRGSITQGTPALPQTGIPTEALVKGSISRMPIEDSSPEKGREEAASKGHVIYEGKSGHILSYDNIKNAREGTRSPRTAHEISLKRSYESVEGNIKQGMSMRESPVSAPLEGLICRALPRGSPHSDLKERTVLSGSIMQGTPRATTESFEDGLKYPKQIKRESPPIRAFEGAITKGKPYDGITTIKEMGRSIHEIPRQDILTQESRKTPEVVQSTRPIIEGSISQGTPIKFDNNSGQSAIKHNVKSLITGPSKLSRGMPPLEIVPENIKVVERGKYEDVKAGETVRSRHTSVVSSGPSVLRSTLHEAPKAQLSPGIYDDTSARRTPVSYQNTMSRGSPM
Kind of experiment: Two-hybrid detection system for interaction of HDAC4 and N-CoR. The class given is cell-based. Particulars: Jurkat cells; 22 hours after transfection. As to the method:
First, from the literature information in Mol. Cell, 2002, Vol. 9, p.45-57, the site corresponding to the RD3 sequence of human N-COR was determined (1005-1498a.a.). The human N-COR CDS base sequence was obtained from GenBank accession number AF044209, and human N-CoR(RD3) cDNA was amplified from human-lung-derived cDNA by the PCR method. The primers used were RD3-Bam-FW (SEQ ID NO:82) and RD3-Not-RV (SEQ ID NO:83) below. For the base sequence of human N-CoR(RD3), see SEQ ID NO:21; for the amino acid sequence encoded by the base sequence of human N-CoR (RD3), see SEQ ID NO:22. […]
Subsequently, 10 μg of pG5-Luc (Promega), 3 μg of BND and 3 μg of pACT, or 10 μg of pG5-Luc, 3 μg of pBND-N-CoR (RD3) and 3 μg of pACT-HDAC4, or 10 μg of pG5-Luc, 3 μg of pBND-N-CoR(RD3) and 3 μg of pACT-HDAC4 (H863L), were mixed respectively, and each mixture was transfected to 1×10^7 Jurkat cells (ATCC, TIB-152) by the electroporation method (BIO-RAD, Gene Pulser II, voltage 300 V, charge 975 μF, 400 μL). Twenty-two hours after transfection, luciferase activity in the cells was measured according to the manual of the Bright-Glo Luciferase Assay System (Promega) using a multi-label counter (1420 MULTILABEL COUNTER ARVO SX, WALLAC).

B1: HDAC4 dominant negative variant (H863L): HDAC4 variant with H863L mutation, amino acid sequence SEQ ID NO:6, expressed from plasmid (protein, listed as Homo sapiens)
chain: MSSQSHPDGLSGRDQPVELLNPARVNHMPSTVDVATALPLQVAPSAVPMDLRLDHQFSLPVAEPALREQQLQQELLALKQKQQIQRQILIAEFQRQHEQLSRQHEAQLHEHIKQQQEMLAMKHQQELLEHQRKLERHRQEQELEKQHREQKLQQLKNKEKGKESAVASTEVKMKLQEFVLNKKKALAHRNLNHCISSDPRYWYGKTQHSSLDQSSPPQSGVSTSYNHPVLGMYDAKDDFPLRKTASEPNLKLRSRLKQKVAERRSSPLLRRKDGPVVTALKKRPLDVTDSACSSAPGSGPSSPNNSSGSVSAENGIAPAVPSIPAETSLAHRLVAREGSAAPLPLYTSPSLPNITLGLPATGPSAGTAGQQDTERLTLPALQQRLSLFPGTHLTPYLSTSPLERDGGAAHSPLLQHMVLLEQPPAQAPLVTGLGALPLHAQSLVGADRVSPSIHKLRQHRPLGRTQSAPLPQNAQALQHLVIQQQHQQFLEKHKQQFQQQQLQMNKIIPKPSEPARQPESHPEETEEELREHQALLDEPYLDRLPGQKEAHAQAGVQVKQEPIESDEEEAEPPREVEPGQRQPSEQELLFRQQALLLEQQRIHQLRNYQASMEAAGIPVSFGGHRPLSRAQSSPASATFPVSVQEPPTKPRFTTGLVYDTLMLKHQCTCGSSSSHPEHAGRIQSIWSRLQETGLRGKCECIRGRKATLEELQTVHSEAHTLLYGTNPLNRQKLDSKKLLGSLASVFVRLPCGGVGVDSDTIWNEVHSAGAARLAVGCVVELVFKVATGELKNGFAVVRPPGHHAEESTPMGFCYFNSVAVAAKLLQQRLSVSKILIVDWDVHHGNGTQQAFYSDPSVLYMSLLRYDDGNFFPGSGAPDEVGTGPGVGFNVNMAFTGGLDPPMGDAEYLAAFRTVVMPIASEFAPDVVLVSSGFDAVEGHPTPLGGYNLSARCFGYLTKQLMGLAGGRIVLALEGGHDLTAICDASEACVSALLGNELDPLPEKVLQQRPNANAVRSMEKVMEIHSKYWRCLQRTTSTAGRSLIEAQTCENEEAETVTAMASLSVGVKPAEKRPDEEPMEEEPPL
modifications: Dominant negative mutant (H863L) of human histone deacetylase-4 (HDAC4) gene
As to B1, the “interaction with N-CoR(RD3), GAL4 transcription activation (luciferase)” value was “did not interact with N-CoR(RD3)”.
